Reference: US20080170994A1 (ARMAGEN TECHNOLOGIES, published 2008)
One block for each binder: values may come before it.

Columns and labels:
[1] = biological target: BBB insulin receptor of the Rhesus monkey (Rhesus monkey, UniProt Q28516 1-210); assay: cell-based or functional assay
[2] = biological target: T1, human insulin receptor (HIR) extracellular domain (ECD) (human, UniProt P06213 28-956, limits assumed); assay: ELISA on affinity purified HIR ECD
T1 construct: extracellular domain; Solid phase antigen of the HIR ELISA; also called HIR ECD; purified human insulin receptor
Protocol: The affinity of the fusion antibody for binding to the human insulin receptor (HIR) extracellular domain (ECD) was measured with an ELISA using affinity purified HIR ECD obtained from medium conditioned by CHO cells permanently transfected with the HIR ECD gene. […] The 50% saturation of binding, ED₅₀, is 0.53±0.02 nM for the chimeric HIRMAb. The ED₅₀ of fusion antibody binding to the HIR is 1.0±0.1 nM (FIG. 35). […] The HIR at the BBB is an heterotetrameric molecule comprised of two alpha and two beta chains. […] There is specific binding of the [¹²⁵I]-fusion antibody to human brain capillaries in a time-dependent process, whereas binding of the [¹²⁵I]-mouse anti-Aβ antibody is constant with time, and is non-specific (FIG. 36B).

Aβ^1-40 amyloid peptide [3] = biological target: T2, Aβ^1-40 amyloid peptide (human, UniProt P05067 672-711); assay: IRMA: competition with [125I]-murine anti-Aβ MAb on plated Aβ^1-40
T2 construct: domain: Aβ^1-40; Plated on 96-well plates in the ELISA and the IRMA; also called Aβ^1-40 peptide; 40 amino acid Aβ amyloid peptide of AD
Protocol: (§1) FIG. 34. Aβ¹⁻⁴⁰ immunoradiometric assay (IRMA) measures the binding of the [¹²⁵I]-murine anti-Aβ MAb to Aβ¹⁻⁴⁰ that is plated in wells of a 96-well plate. The murine anti-Aβ MAb is the original murine MAb against Aβ purified from hybridoma conditioned medium. In the absence of competitors of binding, approximately 20% of the total [¹²⁵I]-anti-Aβ MAb is bound to the Aβ¹⁻⁴⁰. […] The affinity of the fusion antibody for Aβ¹⁻⁴⁰ is equal to the affinity of the original murine anti-Aβ¹⁻⁴⁰ MAb
(§2) The affinity of the fusion antibody for binding to Aβ¹⁻⁴⁰ was compared to the same affinity of the murine hybridoma generated anti-Aβ MAb with an immunoradiometric assay (IMRA). In this assay, the Aβ¹⁻⁴⁰ is plated in 96-well plates, and the binding of [¹²⁵I]-murine anti-Aβ MAb to the […] is measured. […] Therefore, the affinity of the fusion antibody for Aβ¹⁻⁴⁰ is identical to that of the original 150 kDa hetero-tetrameric murine anti-Aβ MAb. This was a surprising finding, since the affinity of a ScFv for the target antigen is generally much lower than for the full, tetrameric MAb molecule. Owing to the bivalency of the tetrameric MAb, the affinity for the antigen is higher than the affinity of the monomeric ScFv. The high affinity of the ScFv moiety of the fusion antibody for Aβ¹⁻⁴⁰ is attributed to the design of the fusion antibody molecule, which places the ScFv in a dimeric or bivalent conformation (FIG. 26).

Aβ^1-40 amyloid peptide [4] = biological target: T2, Aβ^1-40 amyloid peptide; assay: IRMA on plated Aβ^1-40
Aβ^1-40 amyloid peptide [5] = biological target: T2, Aβ^1-40 amyloid peptide; assay: IRMA: [125I]-murine anti-Aβ MAb on plated Aβ^1-40, unlabelled antibody as competitor
Protocol: as §1
as §2, with “The high affinity of the ScFv moiety of the fusion antibody for Aβ¹⁻⁴⁰ is attributed to the design of the fusion antibody molecule, which places the ScFv in a dimeric or bivalent conformation (FIG. 26).” left out

B1: anti-Aβ ScFv/chimeric HIRMAb fusion antibody (bispecific antibody, human IgG1, kappa)
heavy: not shown
light: DIQMTQSPSSLSASLGERVSLTCRASQDIGGNLYWLQQGPDGTIKRLIYATSSLDSGVPKRFSGSRSGSDYSLTISSLESEDFVDYYCLQYSSSPWTFGGGTKMEIKRTVAAPSVFIFPPSDEQLKSGTASVVCLLNNFYPREAKVQWKVDNALQSGNSQESVTEQDSKDSTYSLSSTLTLSKADYEKHKVYACEVTHQGLSSPVTKSFNRGEC
notes: also called fusion protein; HIRMAb-mAβScFv
brain volume of distribution (VD) in Rhesus monkey at 3 hours after intravenous injection [1]: > 10 fold | EC50 [2]: 1 nM | Kd (Aβ^1-40 amyloid peptide [3]): 24 nM

B2: Ala-499 form of the antibody fusion protein (S499A) (bispecific antibody, human IgG1, kappa)
heavy: not shown
light: DIQMTQSPSSLSASLGERVSLTCRASQDIGGNLYWLQQGPDGTIKRLIYATSSLDSGVPKRFSGSRSGSDYSLTISSLESEDFVDYYCLQYSSSPWTFGGGTKMEIKRTVAAPSVFIFPPSDEQLKSGTASVVCLLNNFYPREAKVQWKVDNALQSGNSQESVTEQDSKDSTYSLSSTLTLSKADYEKHKVYACEVTHQGLSSPVTKSFNRGEC
notes: also called fusion antibody with the S499A mutation
fold decrease of affinity against the Ser-499 fusion antibody (Aβ^1-40 amyloid peptide [4]): 8 fold | Ki (Aβ^1-40 amyloid peptide [3]): 271 nM

B3: Ala-497 form of the antibody fusion protein (N497A) (bispecific antibody, human IgG1, kappa)
heavy: not shown
light: DIQMTQSPSSLSASLGERVSLTCRASQDIGGNLYWLQQGPDGTIKRLIYATSSLDSGVPKRFSGSRSGSDYSLTISSLESEDFVDYYCLQYSSSPWTFGGGTKMEIKRTVAAPSVFIFPPSDEQLKSGTASVVCLLNNFYPREAKVQWKVDNALQSGNSQESVTEQDSKDSTYSLSSTLTLSKADYEKHKVYACEVTHQGLSSPVTKSFNRGEC
notes: also called fusion antibody with the N497A mutation
fold decrease of affinity against the Asn-497 fusion antibody (Aβ^1-40 amyloid peptide [4]): ~6 fold | Ki (Aβ^1-40 amyloid peptide [3]): 182 nM

More lines, now with the values ahead:

Kd (Aβ^1-40 amyloid peptide [5]): 32 nM
B4: murine anti-Aβ MAb (hybridoma generated) (antibody, V domains shown)
VH: QVQLQQSGAELVKPGATVKLSCKASGYSFNSHYIYWVKQRPGQGLEWIGEINPSNGAMNFNEKFKNKATLTVDKSSSTAYMQLSSLTSEDSAVYYCVRDPTSYWGQGTLVTVSA
VL: DVVMTQTPLSLPVSLGDQASISCRSSQSLVHSYGNTYLHWYLQKPGQSPKLLIYKVSNRFSGVPDRFSGSGSGTDFTLKISRVEAEDLGVYFCSQSTHVPYTFGGGTKLEIKR
notes: 150 kDa hetero-tetrameric mouse IgG (gamma heavy chain, kappa light chain) purified from hybridoma medium; also called mouse anti-Aβ MAb; mouse anti-Aβ antibody

EC50 [2]: 0.53 nM
B5: chimeric HIRMAb (chimeric monoclonal antibody to the human insulin receptor) (antibody, human IgG1, kappa, V domains shown)
VH: QVQLQQSGPELVKPGALVKISCKASGYTFTNYDIHWVKQRPGQGLEWIGWIYPGDGSTKYNEKFKGKATLTADKSSSTAYMHLSSLTSEKSAVYFCAREWAYWGQGTLVTVSA
VL: DIQMTQSPSSLSASLGERVSLTCRASQDIGGNLYWLQQGPDGTIKRLIYATSSLDSGVPKRFSGSRSGSDYSLTISSLESEDFVDYYCLQYSSSPWTFGGGTKMEIKR
